Legend:
[1] = molecular target: T1, recombinant human GPC-3 protein (human, UniProt P51654 25-559, limits assumed); test: SPR, Biacore T200
T1 construct: also called glypican-3; recombinant GPC-3 protein
Method: Affinity of 24 anti-GPC-3 IgG₁ antibodies was measured via Surface Plasmon Resonance (SPR) analysis using Biacore™ T200 system and shown in Table E3 (below).

[2] = molecular target: T1, recombinant human GPC-3 protein; test: binding ELISA with biotin-hGPC-3, EC50 calculated from the curves of FIG. 1A to 1C
[3] = molecular target: T2, mouse GPC-3 on the surface of transduced cells (Hepa1-6-mGPC-3, MC38-mGPC-3) (mouse, UniProt Q8CFZ4 25-553); test: flow cytometry histograms, 20 nM antibody, Hepa1-6-mGPC-3 against parental Hepa1-6 cells
T2 construct: whole, on cells

[4] = molecular target: T3, recombinant mouse GPC-3 protein (mouse, UniProt Q8CFZ4 25-558, limits assumed, biotinylated (sites not given)); test: cross-reactivity binding ELISA with biotinylated recombinant GPC-3, absorbance 450nm-570nm
T3 construct: Biotinylated for the cross-reactivity ELISA; also called mouse homolog of GPC-3 protein
T3 sequence (Q8CFZ4 25-558 limits assumed): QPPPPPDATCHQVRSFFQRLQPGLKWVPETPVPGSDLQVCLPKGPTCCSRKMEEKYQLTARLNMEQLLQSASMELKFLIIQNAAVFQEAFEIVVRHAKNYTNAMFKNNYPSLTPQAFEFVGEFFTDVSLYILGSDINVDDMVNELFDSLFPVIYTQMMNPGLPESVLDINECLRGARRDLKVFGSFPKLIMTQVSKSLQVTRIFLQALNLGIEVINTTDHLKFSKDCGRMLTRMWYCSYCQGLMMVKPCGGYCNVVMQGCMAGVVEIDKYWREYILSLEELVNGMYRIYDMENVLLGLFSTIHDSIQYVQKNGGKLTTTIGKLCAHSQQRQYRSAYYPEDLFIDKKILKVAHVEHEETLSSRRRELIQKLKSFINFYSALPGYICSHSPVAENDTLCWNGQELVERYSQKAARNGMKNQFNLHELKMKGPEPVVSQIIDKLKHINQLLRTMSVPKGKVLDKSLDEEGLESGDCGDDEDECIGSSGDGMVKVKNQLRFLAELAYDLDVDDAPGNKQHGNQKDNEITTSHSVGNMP

T2 sequence (Q8CFZ4 25-553 limits assumed): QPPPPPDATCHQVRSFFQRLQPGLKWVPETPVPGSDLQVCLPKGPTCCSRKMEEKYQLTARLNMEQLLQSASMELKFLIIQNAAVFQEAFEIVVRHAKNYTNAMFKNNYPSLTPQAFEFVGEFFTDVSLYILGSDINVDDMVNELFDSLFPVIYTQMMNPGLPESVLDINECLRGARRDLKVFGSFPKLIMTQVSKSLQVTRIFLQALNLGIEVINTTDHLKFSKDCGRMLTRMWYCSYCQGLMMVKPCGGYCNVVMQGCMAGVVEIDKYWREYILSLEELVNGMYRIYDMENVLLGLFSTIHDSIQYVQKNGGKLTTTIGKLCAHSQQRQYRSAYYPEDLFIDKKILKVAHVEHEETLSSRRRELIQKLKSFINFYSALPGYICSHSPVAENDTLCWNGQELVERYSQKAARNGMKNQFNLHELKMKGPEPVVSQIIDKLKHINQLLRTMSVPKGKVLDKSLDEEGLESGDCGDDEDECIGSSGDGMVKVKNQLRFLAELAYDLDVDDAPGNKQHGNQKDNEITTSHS

B1: anti-GPC-3 IgG1 clone 1D8 (antibody, V domains shown)
VH: QVQLVQSGAEVKKPGASVKVSCKASGYTFTSYGISWVRQAPGQGLEWMGWISAYNGNTNYAQKLQGRVTMTTDTSTSTAYMELRSLRSDDTAVYYCARDGGLIAAAFGYYYYGMDVWGQGTT
VL: EIVLTQSPGTLSLSPGERATLSCRASQSVSSYLAWYQQKPGQAPRLLIYGASSRATGIPDRFSGSGSGTDFTLTISRLEPEDFAVYYCQQYERPPTFGGGTK
notes: Tested as IgG1; also called monoclonal antibody 1D8
**Q.** Which results are given for B1?
**A.** Kd [1]: 13.7 nM; koff [1]: 0.0053 s⁻¹; kon [1]: 388000 M⁻¹ s⁻¹; EC50 [2]: 9.01 nM; binding result [3]: no binding (tested: 20 nM); binding result [4]: no binding

From patent US20260042862A1 (AGENCY FOR SCIENCE TECHNOLOGY AND RESEARCH, published 2026)
